Patent US20030133935A1 (published 2003)

Target: human tumor necrosis factor-α (TNFα) (human, UniProt P01375 77-233)
Experiment: cell-based or functional assay

Sequence of human tumor necrosis factor-α (TNFα) (P01375 77-233): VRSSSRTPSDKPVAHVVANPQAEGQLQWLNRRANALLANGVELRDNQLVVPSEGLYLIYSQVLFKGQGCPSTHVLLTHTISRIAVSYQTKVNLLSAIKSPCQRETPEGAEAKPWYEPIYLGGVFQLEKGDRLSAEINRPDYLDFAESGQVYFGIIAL

B1: p55-sf2 TNF receptor/IgG1 fusion protein (Fc fusion)
chain: QVCPQGKYIHPQNNSICCTKCHKGTYLYNDCPGPGQDTDCRECESGSFTASENHLRHCLSCSKCRKEMGQVEISSCTVDRDTVCGCRKNQYRHYWSENLFQCFNCSLCLNGTVHLSCQEKQNTVCTCHAGFFLRENECVSCSNCKKSLECTKLCLPQIGTLVTVSS
In the case of B1, the “IC50: concentration of fusion protein required to inhibit 2 ng/ml (39.2 pM) TNFα by 50%, WEHI 164 cytotoxicity assay” value is reported as 70 pM.

B2: chimeric mouse/human IgG1 anti-platelet mAb (7E3) (antibody, INN chains, looked up, V domains shown)
VH: EVQLQQSGTVLARPGASVKMSCEASGYTFTNYWMHWVKQRPGQGLEWIGAIYPGNSDTSYIQKFKGKAKLTAVTSTTSVYMELSSLTNEDSAVYYCTLYDGYYVFAYWGQGTLVTVSA
VL: EIVLTQSPVTLSVTPGDSVSLSCRASRDISNNLHWFQQTSHESPRLLIKYASQSMSGIPSRFSGSGSGTDFTLSINSVETEDFGMYFCQQTNSWPYTFGGGTKLEIK
modifications: IgG1
Binder B2 has an IL-6 secreted by FS-4 fibroblasts (ng/ml), rhTNF 0.3 ng/ml, antibody 4 µg/ml (no antibody: 1.36) of 1.6 ng/mL, an IL-6 secreted by FS-4 fibroblasts (ng/ml), rhTNF 1.5 ng/ml, antibody 4 µg/ml (no antibody: 2.00) of 1.96 ng/mL and an IL-6 secreted by FS-4 fibroblasts (ng/ml), rhTNF 7.5 ng/ml, antibody 4 µg/ml (no antibody: 2.56) of 2.16 ng/mL.
